Read-outs that look alike come from different tables or passages of the source.
T1: human IL4Rα/Fc (R and D Systems 604-4R) (human, UniProt P24394 26-232)
T1 construct: Bought product; also called human IL4Rα-Fc receptor; IL-4Rα/Fc (R&D systems Cat. No. 604-4R-050)
T1 sequence (looked up): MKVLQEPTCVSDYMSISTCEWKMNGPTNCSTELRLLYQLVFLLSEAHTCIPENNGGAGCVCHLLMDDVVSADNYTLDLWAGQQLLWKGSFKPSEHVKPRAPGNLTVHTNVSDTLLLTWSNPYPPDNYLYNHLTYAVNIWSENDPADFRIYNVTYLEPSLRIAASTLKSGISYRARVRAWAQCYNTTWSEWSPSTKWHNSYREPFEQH


Tests used:
[1] = target: human IL-4Rα on TF-1 cells (human) (UniProt P24394); experiment: cell-based or functional assay
[2] = target: T1, human IL4Rα/Fc (R and D Systems 604-4R); experiment: HTRF receptor-ligand competition, scFv vs biotinylated human IL4
[3] = target: antibody used for epitope mapping in Example 5 (not named); experiment: HTRF competition vs biotinylated human IL-4Rα/Fc for Eu-cryptate antibody
[4] = target: antibody used for epitope mapping in Example 5 (not named); experiment: as above; remark: listed apart in the source

| IC50 [3] | Binder | other results |
| --- | --- | --- |
|  | Antibody 24 (PGL) IgG (antibody, from another filing, V domains shown) VH: QVQLVQSGAEVKKPGASVKVSCKASGYAFTSYYMHWVRQAPGQGLEWMGIINPRGGSTSYAQKFQGRVTMTRDTSTSTVYMELSSLRSEDTAVYYCARGKYWMYDWGKGTLVTVSS VL: QSVLTQPPSVSAAPGQKVTISCSGGSSNIGNSYVSWYQQLPGTAPKLLIYDNNKRPSGIPDRFSGSKSGTSATLGITGLQTGDEADYFCGTWDTSTVWEWPFGTGTKLTVL | IC50, IL-4 induced TF-1 cell proliferation [1]: 0.0153 nM; IC50, IL-13 induced TF-1 cell proliferation [1]: 0.055 nM |
|  | Antibody 1 scFv (scFv, V domains shown) VH: QVQLVQSGAEVKKPGASVKVSCKASGYAFTSYYMHWARQAPGQGLEWMGIINPSGGSTSYAQKFQGRVTMTRDTSTSTVYMELSSLRSEDTAVYYCARGKWWLDYWGKGTLVTVSS VL: QSVLTQPPSVSAAPGQKVTISCSGGSSNIGNSYVSWYQQLPGTAPKLLIYDNNKRPSGIPDRFSGSKSGTSATLAITGLQTGDEADYYCGTWDTSLSANYVFGTGTKLTVL | Ki [2]: 12 nM |
|  | MoD1HuD2IL-4Rα (receptor) IKVLGEPTCFSDYIRTSTCEWFLDSAVDCSSQLCLHYRLMFFEFSENLTCIPRNSASTVCVCHMEMNRPVQSDRYQMELWAEHRQLWQGSFSPSGHVKPRAPGNLTVHTNVSDTLLLTWSNPYPPDNYLYNHLTYAVNIWSENDPADFRIYNVTYLEPSLRIAASTLKSGISYRARVRAWAQCYNTTWSEWSPSTKWHNSYREPFNPAFLYKVVGAADYKDDDDKAAHHHHHHHHHH | % inhibition at 1000nM [3]: 34% |
| 1.9 nM | MoLoop1HuIL-4Rα (receptor) MKVLQEPTCVSDYIRTSTCEWKMNGPTNCSTELRLLYQLVFLLSEAHTCIPENNGGAGCVCHLLMDDVVSADNYTLDLWAGQQLLWKGSFKPSEHVKPRAPGNLTVHTNVSDTLLLTWSNPYPPDNYLYNHLTYAVNIWSENDPADFRIYNVTYLEPSLRIAASTLKSGISYRARVRAWAQCYNTTWSEWSPSTKWHNSYREPFNPAFLYKVVGAADYKDDDDKAAHHHHHHHHHH |  |
| 3.8 nM | EM20 (receptor) MKVLQEPTCVSDYMSISTCEWKMNGPTNCSTELRLLYQLMFFFSENLTCIPENNGGAGCVCHLLMDDVVSADNYTLDLWAGQQLLWKGSFKPSEHVKPRAPGNLTVHTNVSDTLLLTWSNPYPPDNYLYNHLTYAVNIWSENDPADFRIYNVTYLEPSLRIAASTLKSGISYRARVRAWAQCYNTTWSEWSPSTKWHNSYREPFNPAFLYKVVGAADYKDDDDKAAHHHHHHHHHH |  |
| 0.448 nM | EM25 (receptor) MKVLQEPTCVSDYMSISTCEWKMNGPTNCSTELRLLYQLVFLLSENLTCIPENNGGAGCVCHLLMDDVVSADNYTLDLWAGQQLLWKGSFKPSEHVKPRAPGNLTVHTNVSDTLLLTWSNPYPPDNYLYNHLTYAVNIWSENDPADFRIYNVTYLEPSLRIAASTLKSGISYRARVRAWAQCYNTTWSEWSPSTKWHNSYREPFNPAFLYKVVGAADYKDDDDKAAHHHHHHHHHH |  |
| 1.4 nM | MoLoop5HuIL-4Rα (receptor) MKVLQEPTCVSDYMSISTCEWKMNGPTNCSTELRLLYQLVFLLSEAHTCIPENNGGAGCVCHLLMDDVVSADNYTLDLWAGQQLLWKGSFKPSEHVKPRAPGNLTVHTNVSDTLLLTWSNPYPPDNYLYNHLTYAVNIWSENDPADFRIYNVTYLEPSLRIAASTLKSGISYRARVRAWSQILTGTWSEWSPSTKWHNSYREPFNPAFLYKVVGAADYKDDDDKAAHHHHHHHHHH |  |
|  | MoLoop3HuIL-4Rα (receptor) MKVLQEPTCVSDYMSISTCEWKMNGPTNCSTELRLLYQLVFLLSEAHTCIPENNGGAGCVCHLEMNRPVQSDRYTLDLWAGQQLLWKGSFKPSEHVKPRAPGNLTVHTNVSDTLLLTWSNPYPPDNYLYNHLTYAVNIWSENDPADFRIYNVTYLEPSLRIAASTLKSGISYRARVRAWAQCYNTTWSEWSPSTKWHNSYREPFNPAFLYKVVGAADYKDDDDKAAHHHHHHHHHH | % inhibition at 1000nM [3]: 58%; % inhibition at 1000nM [4]: 45% |
| 0.663 nM | MoLoop4HuIL-4Rα (receptor) MKVLQEPTCVSDYMSISTCEWKMNGPTNCSTELRLLYQLVFLLSEAHTCIPENNGGAGCVCHLLMDDVVSADNYTLDLWAGQQLLWKGSFKPSEHVKPRAPGNLTVHTNVSDTLLLTWNNLYPSNNYLYNHLTYAVNIWSENDPADFRIYNVTYLEPSLRIAASTLKSGISYRARVRAWAQCYNTTWSEWSPSTKWHNSYREPFNPAFLYKVVGAADYKDDDDKAAHHHHHHHHHH |  |
| 4.5 nM | EM19 (receptor) MKVLQEPTCVSDYMSISTCEWKMNGPTNCSTELRLLYQLMFLEFSENLTCIPENNGGAGCVCHLLMDDVVSADNYTLDLWAGQQLLWKGSFKPSEHVKPRAPGNLTVHTNVSDTLLLTWSNPYPPDNYLYNHLTYAVNIWSENDPADFRIYNVTYLEPSLRIAASTLKSGISYRARVRAWAQCYNTTWSEWSPSTKWHNSYREPFNPAFLYKVVGAADYKDDDDKAAHHHHHHHHHH |  |
| 19 nM | EM22 (receptor) MKVLQEPTCVSDYMSISTCEWKMNGPTNCSTELRLLYQLMFFEFSEALTCIPENNGGAGCVCHLLMDDVVSADNYTLDLWAGQQLLWKGSFKPSEHVKPRAPGNLTVHTNVSDTLLLTWSNPYPPDNYLYNHLTYAVNIWSENDPADFRIYNVTYLEPSLRIAASTLKSGISYRARVRAWAQCYNTTWSEWSPSTKWHNSYREPFNPAFLYKVVGAADYKDDDDKAAHHHHHHHHHH |  |
| 13 nM | EM24 (receptor) MKVLQEPTCVSDYMSISTCEWKMNGPTNCSTELRLLYQLVFFEFSEAHTCIPENNGGAGCVCHLLMDDVVSADNYTLDLWAGQQLLWKGSFKPSEHVKPRAPGNLTVHTNVSDTLLLTWSNPYPPDNYLYNHLTYAVNIWSENDPADFRIYNVTYLEPSLRIAASTLKSGISYRARVRAWAQCYNTTWSEWSPSTKWHNSYREPFNPAFLYKVVGAADYKDDDDKAAHHHHHHHHHH |  |
| 5.7 nM | EM21 (receptor) MKVLQEPTCVSDYMSISTCEWKMNGPTNCSTELRLLYQLMFFELSENLTCIPENNGGAGCVCHLLMDDVVSADNYTLDLWAGQQLLWKGSFKPSEHVKPRAPGNLTVHTNVSDTLLLTWSNPYPPDNYLYNHLTYAVNIWSENDPADFRIYNVTYLEPSLRIAASTLKSGISYRARVRAWAQCYNTTWSEWSPSTKWHNSYREPFNPAFLYKVVGAADYKDDDDKAAHHHHHHHHHH |  |

From patent EP2245064B1 (MEDIMMUNE LIMITED, dated 2014)
